From paper PMC3878821

B1: ROS1 kinase domain G2032R mutant (Homo sapiens; G2032R) (protein)
chain: IENLPAFPREKLTLRLLLGSGAFGEVYEGTAVDILGVGSGEIKVAVKTLKKGSTDQEKIEFLKEAHLMSKFNHPNILKQLGVCLLNEPQYIILELMEGRDLLTYLRKARMATFYGPLLTLVDLVDLCVDISKGCVYLERMHFIHRDLAARNCLVSVKDYTSPRIVKIGDFGLARDIYKNDYYRKRGEGLLPVRWMAPESLMDGIFTTQSDVWSFGILIWEILTLGHQPYPAHSNLDVLNYVQTGGRLEPPRNCPDDLWNLMTQCWAQEPDQRPTFHRIQDQLQLFRNFFLNSIYKSRDE
B2: ROS1 kinase domain (nonmutant) (Homo sapiens) (protein)
chain: IENLPAFPREKLTLRLLLGSGAFGEVYEGTAVDILGVGSGEIKVAVKTLKKGSTDQEKIEFLKEAHLMSKFNHPNILKQLGVCLLNEPQYIILELMEGGDLLTYLRKARMATFYGPLLTLVDLVDLCVDISKGCVYLERMHFIHRDLAARNCLVSVKDYTSPRIVKIGDFGLARDIYKNDYYRKRGEGLLPVRWMAPESLMDGIFTTQSDVWSFGILIWEILTLGHQPYPAHSNLDVLNYVQTGGRLEPPRNCPDDLWNLMTQCWAQEPDQRPTFHRIQDQLQLFRNFFLNSIYKSRDE

Substrate: Nc1ncnc2c1ncn2[C@@H]1O[C@H](COP(=O)(O)OP(=O)(O)OP(=O)(O)O)[C@@H](O)[C@H]1O
Assay: in vitro enzymatic assay, Km app for ATP
Assay type: biochemical, Homo sapiens
Details: ATP-binding site

Protein	Km [µM]
B1	22
B2	65
